Reference: PMC11804907

Legend:
Test in all cases: synthetic bead recruitment assay in embryos (fluorescence intensity at ALFA-tag-Nanobody-coupled beads)
mCherry-TACC = mCherry-TACC (UniProt Q9VN51); conditions: beads injected into embryos expressing mCherry-TACC and AurA-GFP with mRNA encoding ALFA-tagged Spd-2; beads-only background est. 0.65; parent: est. 2.0; read off a plot
AurA-GFP = AurA-GFP (UniProt Q27393); conditions: beads injected into embryos expressing mCherry-TACC and AurA-GFP with mRNA encoding ALFA-tagged Spd-2; beads-only background est. 0.5; parent: est. 2.1; read off a plot
Chain of UniProt Q27393 (Q27393 entry or part of it): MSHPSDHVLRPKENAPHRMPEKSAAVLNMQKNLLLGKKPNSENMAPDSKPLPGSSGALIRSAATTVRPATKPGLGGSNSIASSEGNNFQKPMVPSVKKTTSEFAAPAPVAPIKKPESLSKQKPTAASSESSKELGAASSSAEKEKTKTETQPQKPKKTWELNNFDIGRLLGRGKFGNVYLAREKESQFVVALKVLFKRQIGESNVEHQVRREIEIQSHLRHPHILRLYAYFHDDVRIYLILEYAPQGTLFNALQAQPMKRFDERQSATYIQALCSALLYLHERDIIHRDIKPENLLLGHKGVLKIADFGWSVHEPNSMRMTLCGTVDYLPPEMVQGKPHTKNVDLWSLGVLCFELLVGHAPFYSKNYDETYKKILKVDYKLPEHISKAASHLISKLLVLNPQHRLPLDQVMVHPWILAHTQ

RFP-Cnn = RFP-Cnn (UniProt P54623); conditions: beads injected into embryos expressing RFP-Cnn and Polo-GFP with mRNA encoding ALFA-tagged Spd-2; beads-only background est. 0.75; parent: est. 2.4; read off a plot
Chain of UniProt P54623 (P54623 whole entry): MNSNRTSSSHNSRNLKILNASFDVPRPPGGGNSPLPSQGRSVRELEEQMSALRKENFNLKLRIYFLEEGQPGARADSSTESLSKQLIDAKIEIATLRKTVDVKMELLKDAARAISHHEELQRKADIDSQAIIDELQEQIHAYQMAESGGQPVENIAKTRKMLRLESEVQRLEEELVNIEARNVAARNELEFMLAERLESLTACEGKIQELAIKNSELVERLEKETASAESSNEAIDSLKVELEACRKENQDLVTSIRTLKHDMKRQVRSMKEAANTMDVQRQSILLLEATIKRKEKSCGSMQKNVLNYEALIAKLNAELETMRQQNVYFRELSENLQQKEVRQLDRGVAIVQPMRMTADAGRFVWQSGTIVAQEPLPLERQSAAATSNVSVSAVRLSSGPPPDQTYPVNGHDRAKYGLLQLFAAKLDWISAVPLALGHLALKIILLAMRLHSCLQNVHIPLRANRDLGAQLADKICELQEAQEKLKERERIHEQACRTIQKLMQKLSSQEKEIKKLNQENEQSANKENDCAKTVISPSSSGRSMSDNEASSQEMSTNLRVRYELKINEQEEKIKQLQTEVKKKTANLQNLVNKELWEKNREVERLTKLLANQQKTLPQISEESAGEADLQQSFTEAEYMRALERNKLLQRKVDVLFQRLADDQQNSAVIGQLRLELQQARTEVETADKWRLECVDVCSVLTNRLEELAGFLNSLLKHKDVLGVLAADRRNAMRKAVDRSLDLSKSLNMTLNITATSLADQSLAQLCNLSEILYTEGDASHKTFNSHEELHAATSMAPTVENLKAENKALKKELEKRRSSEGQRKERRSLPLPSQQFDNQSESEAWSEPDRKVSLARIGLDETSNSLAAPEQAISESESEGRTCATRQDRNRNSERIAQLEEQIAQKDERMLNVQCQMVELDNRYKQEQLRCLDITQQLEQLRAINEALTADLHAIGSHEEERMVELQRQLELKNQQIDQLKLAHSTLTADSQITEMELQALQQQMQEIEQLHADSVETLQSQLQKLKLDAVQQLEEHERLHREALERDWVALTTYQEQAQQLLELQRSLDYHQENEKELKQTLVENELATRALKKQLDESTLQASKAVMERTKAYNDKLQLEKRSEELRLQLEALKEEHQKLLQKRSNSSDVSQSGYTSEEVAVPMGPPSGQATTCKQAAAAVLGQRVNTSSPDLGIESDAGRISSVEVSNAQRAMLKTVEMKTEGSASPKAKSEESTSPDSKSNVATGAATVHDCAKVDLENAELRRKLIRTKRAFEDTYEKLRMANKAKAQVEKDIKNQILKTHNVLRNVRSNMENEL

Polo-GFP = Polo-GFP (UniProt P52304); conditions: beads injected into embryos expressing RFP-Cnn and Polo-GFP with mRNA encoding ALFA-tagged Spd-2; beads-only background est. 1.0; parent: est. 2.0; read off a plot
Chain of UniProt P52304 (P52304 whole entry): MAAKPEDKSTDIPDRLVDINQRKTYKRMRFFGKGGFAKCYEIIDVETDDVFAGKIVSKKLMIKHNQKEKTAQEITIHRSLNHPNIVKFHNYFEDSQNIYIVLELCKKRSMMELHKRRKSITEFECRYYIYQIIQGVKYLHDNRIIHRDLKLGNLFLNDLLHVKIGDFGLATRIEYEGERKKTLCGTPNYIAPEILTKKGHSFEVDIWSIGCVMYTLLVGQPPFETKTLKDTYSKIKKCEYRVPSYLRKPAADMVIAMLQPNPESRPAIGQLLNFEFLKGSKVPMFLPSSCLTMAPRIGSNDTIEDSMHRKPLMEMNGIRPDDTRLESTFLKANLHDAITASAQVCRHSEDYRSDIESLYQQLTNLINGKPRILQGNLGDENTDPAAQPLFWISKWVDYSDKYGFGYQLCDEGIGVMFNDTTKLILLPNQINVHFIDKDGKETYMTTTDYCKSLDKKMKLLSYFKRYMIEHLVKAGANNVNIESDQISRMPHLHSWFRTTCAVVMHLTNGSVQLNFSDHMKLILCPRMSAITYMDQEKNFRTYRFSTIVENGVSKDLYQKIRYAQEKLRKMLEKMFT

Chain of UniProt Q9VN51 (Q9VN51 entry or part of it): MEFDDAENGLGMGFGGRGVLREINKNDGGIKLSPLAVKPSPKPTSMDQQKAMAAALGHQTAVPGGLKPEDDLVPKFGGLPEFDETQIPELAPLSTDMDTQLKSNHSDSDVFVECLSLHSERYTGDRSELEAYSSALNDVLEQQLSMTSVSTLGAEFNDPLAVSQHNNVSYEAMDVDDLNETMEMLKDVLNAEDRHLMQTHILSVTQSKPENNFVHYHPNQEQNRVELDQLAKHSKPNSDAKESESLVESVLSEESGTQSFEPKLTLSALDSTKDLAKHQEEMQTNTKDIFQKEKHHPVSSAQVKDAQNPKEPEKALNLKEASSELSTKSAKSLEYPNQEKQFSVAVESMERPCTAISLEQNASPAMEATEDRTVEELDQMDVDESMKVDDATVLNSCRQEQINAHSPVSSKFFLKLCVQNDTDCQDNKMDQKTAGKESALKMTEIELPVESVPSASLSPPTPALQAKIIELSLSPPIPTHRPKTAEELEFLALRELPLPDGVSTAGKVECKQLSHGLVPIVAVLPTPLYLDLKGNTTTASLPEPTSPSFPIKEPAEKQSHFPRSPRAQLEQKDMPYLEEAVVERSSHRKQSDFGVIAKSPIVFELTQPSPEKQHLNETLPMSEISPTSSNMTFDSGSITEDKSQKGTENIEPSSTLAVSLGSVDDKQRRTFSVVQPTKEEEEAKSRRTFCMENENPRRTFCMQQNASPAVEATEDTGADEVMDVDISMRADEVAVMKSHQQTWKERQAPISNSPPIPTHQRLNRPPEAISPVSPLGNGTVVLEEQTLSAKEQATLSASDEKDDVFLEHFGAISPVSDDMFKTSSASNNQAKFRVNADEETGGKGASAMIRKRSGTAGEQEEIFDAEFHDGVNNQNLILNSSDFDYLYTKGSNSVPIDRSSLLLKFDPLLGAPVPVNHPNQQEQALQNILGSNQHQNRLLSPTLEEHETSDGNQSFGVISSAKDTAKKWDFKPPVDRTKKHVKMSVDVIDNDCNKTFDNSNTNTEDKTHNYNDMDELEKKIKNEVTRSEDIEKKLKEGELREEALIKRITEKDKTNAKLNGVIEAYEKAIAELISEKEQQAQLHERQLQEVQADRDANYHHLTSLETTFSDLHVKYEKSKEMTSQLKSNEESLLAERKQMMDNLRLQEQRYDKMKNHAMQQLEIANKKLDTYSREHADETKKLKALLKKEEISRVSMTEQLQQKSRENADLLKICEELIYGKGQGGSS

WT Spd-2-ALFA (from UniProt Q9VV79) ∆Polo (all 34 S-S/T motifs mutated to T-S/T; individual positions not printed)
response (mCherry-TACC): 2.3 A.U. | response (AurA-GFP): 2.3 A.U. | response (RFP-Cnn): 0.85 A.U. | response (Polo-GFP): 0.95 A.U.
